Experimental data reported in paper doi:10.1101/2024.03.21.586151.

Biological target: CaM(C110)D with an IAEDANS probe coupled to position 110 (UniProt P0DP23)
Test: FRET or BRET

rate of FRET change after EGTA, fast phase (release of Ca^2+ from the N-domain): 5.8 s⁻¹
Substance: CKIIp with a C-terminal Gly-Cys extension labeled with DDPM (peptide)
